experiment: soluble on expression in E. coli; label from the status in PepcDB or PDB records

| Sequence | soluble on expression in E. coli |
| --- | --- |
| MYIGIDLGTSGVKVILLNEQGEVVAAQTEKLTVSRPHPLWSEQDPEQWWQATDRAMKALGDQHSLQDVKALGIAGQMHGATLLDAQQRVLRPAILWNDGRCAQECTLLEARVPQSRVITGNLMMPGFTAPKLLWVQRHEPEIFRQIDKVLLPKDYLRLRMTGEFASDMSDAAGTMWLDVAKRDWSDVMLQACDLSRDQMPALYEGSEITGALLPEVAKAWGMATVPVVAGGGDNAAGAVGVGMVDANQAMLSLGTSGVYFAVSEGFLSKPESAVHSFCHALPQRWHLMSVMLSAASCLDWAAKLTGLSNVPALIAAAQQADESAEPVWFLPYLSGERTPHNNPQAKGVFFGLTHQHGPNELARAVLEGVGYALADGMDVVHACGIKPQSVTLIGGGARSEYWRQMLADISGQQLDYRTGGDVGPALGAARLAQIAANPEKSLIELLPQLPLEQSHLPDAQRYAAYQPRRETFRRLYQQLLPLMA | soluble |
| MYIPPYKADDQDIVVELNSRFGAETFTVQPTRTGMPVLWVPRERLIEVLTFLRQVPKPYVMLYDLHGVDERLRTHRRGLPSADFSVFYHLMSLERNSDVMIKVALSERDLNLPTATRIWPNANWYEREVWDMYGITFTGHPHLTRMLMPPTWQGHPLRKDYPARATEFDPYSLSAAKQDLEQEALRFKPEDWGMKRHGENEDYMFLNLGPNHPSAHGAFRIILQLDGEEIIDCVPEIGYHHRGAEKMAERQSWHSFIPYTDRIDYLGGVMNNLPYVLSVEKLAGIKVPQRVDVIRIMMAEFFRILNHLLYLGTYIQDVGAMTPVFFTFTDRQRAYKVVEAITGFRLHPAWYRIGGVAHDLPRGWDKLVREFLDWMPKRLDEYETAALKNSILRGRTIGVAQYNTKEALEWGTTGAGLRATGCDFDLRKARPYSGYENFEFEVPLAHNGDAYDRCMVKMGEMRQSLRIIEQCLKNMPEGPYKADHPLTTPPPKERTLQHIETLITHFLQVSWGPVMPANEAFQMIEATKGINSYYLTSDGSTMSYRTRIRTPSFAHLQQIPSVINGSM | not soluble |
| MYKLIDSAKFIMCVRSKRFRPDTLMDIFYLLNIQNMNCKKLFKTLLFIITTLVIVSCSKDDCDLDHIDKLQGLPALKAGTFPEEDLTLNVGEQYVYAPKASSPLDIYYQWYQNGEDMSTAPSFTFNAEHPGRSKVILELSNDLGKVTLENKVMVPGADYSKGCLIINEGWFGHGSGSISFYNYEKNSIEHWCYKNQNFGDVLGVTSQSATLWNGKLYVCSKEDNQLVVMDPKTLYAENSCGKLANYQAYEFIGLNDDYGIITHGGYFSRINLKTFETITLVSVGNTYTGTGSGIAYNGKLILNVNSSGWGSPKVYTIDIAELCSPDLKPTDKVAFQELDIATYGGTRFVQCKDGNIYTVETTKDGKNNLVRINADFSLKKVAMRDDYSPSSFGAYREASFCGTPEGIFYYIAGGKIYKATFDNPAPEETLTEYTKEGYGFYGAGIRVNPKTNELLAMYLTGDYQKNLLVRFNAATGEKISEIAYDGYYFPATFIFN | not soluble |
| MYLTLQEWNARQRRPRSLETVRRWVRESRIFPPPVKDGREYLFHESAVKVDLNRPVTGSLLKRIRNGKKAKS | soluble |
| MYNSATVIYQNLLKSTPKKASEYYYYLGDICWRKEKTDSAKYYFMEGIKTDETYAMNYVGIGIITMKSNATEGQRSFDKALQMTSQKNSQVLNAIGEYYILEADKAELPKGIALLKKSTEIDAKNAMSWILLGDAYGKQAEGSKQAESYGKAANLFHSVPLLKMKYGKMYAAARNKDLSIKYYNEGLAADPTYGPIYRELGDLYNRFRQYDLAIQNYKKYLTYIDSNDDVEFRYADFLFKNNNYAEAIEVFNKLEAKKYNSPYIYNRRAVCYYELAKYDLAQKDIETYFSKVNATKAKLEHHHHHH | not soluble |
| MYNVIGVRFKKAGKIYYFDPNGFHIEHDSCVIVETVRGVEYGQVVIANKQVDEHDVVLPLRKVIRVADDRDLLIVEENKQEALSAFDICQKKVIEHGLDMKLVDVEFTFDRNKVIFYFTADGRVDFRELVKDLASIFKTRIELRQIGVRDEAKMLGGIGPCGRMLCCSTFLGDFEPVSIKMAKDQNLSLNPTKISGLCGRLMCCLKYENDEYETAKEQLPDIGEMITTANGPAKVVGLNILERVLQVELINREKVIEYTWEELLEEGVVSAQTTDLEHHHHHH | not soluble |
| MYRKGAQAERELIKLLEKHGFAVVRSAGSKKVDLVAGNGKKYLCIEVKVTKKDHLYVGKRDMGRLIEFSRRFGGIPVLAVKFLNVGWRFIEVSPKIEKFVFTPSSGVSLEVLLGIQKTLEGKS | soluble |
| MYSPQTFFLQEVKGQKPDGLGGLIDDWGLFKEVSGYIDLVTGTDETTKQNAFVEESTHILIIPEFIEGITDNMRVVDQTNRYYDITYSDNPVGIKHHNEIYLKFEGVLSGEE | not soluble |
| MYTLREPYKGYEVKVTLLPIEDIVIPPIQRDLSETLIKKLMLSIEKVGFVDPILVVEGEEGKYEVINGQHRLKAAELLGIREIPAIILPQETKDYIISLNVEKAPNLKDKAHQAYEIFMKYLKENPEMEEVELENMVEEPYFLTVGFITDRFGEKRFPAYAFEKVLKKVDEFLGLPLEEAERERENRANVLRDVREVMEEKYQELGLTNALHKEAIISKAFQSVYGKRVRKVDDDFYTVFEKIKEAIPRVSFTEEELESF | soluble |
| MYYGFDIGGTKIALGVFDSTRRLQWEKRVPTPHTSYSAFLDAVCELVEEADQRFGVKGSVGIGIPGMPETEDGTLYAANVPAASGKPLRADLSARLDRDVRLDNDANCFALSEAWDDEFTQYPLVMGLILGTGVGGGLVLNGKPITGQSYITGEFGHMRLPVDALTLMGFDFPLRRCGCGQMGCIENYLSGRGFAWLYQHYYDQSLQAPEIIALWEQGDEQAHAHVERYLDLLAVCLGNILTIVDPDLLVIGGGLSNFTAITTQLAERLPRHLLPVARAPRIERARHGDAGGMRGAAFLHLTD | soluble |
| NALPAGNYLVASPQRYNPPGVLDSQTELPRLLAQARREVRVQLLDYAPLSYGPDKTRPYYAVIDNAIRSAAARGVSIKLMVSDWNTGMPEVAYLKSLALVPNVQVRIVTLPVAAEGFIPYARVIHSKTMDIDDQVAWVGTSNWLGGYLDNSRNLEVVMHDSTMAKRIGVLHEQLWDGPYAKPIDINRDYPEPH | not soluble |
| NDDIIVNWVNETLREAEKSSSISSFKDPKISTSLPVLDLIDAIQPGSINYDLLKTENLNDDEKLNNAKYAISMARKIGARVYALPEDLVEVNPKMVMTVFACLMGKGMKRV | soluble |
| NGEHTTDIEEQYLEAIRGATQRITLANAYFFPSYRFLRELRNASRRGVKVTLILQGQPDMPFVRVCSRLTYTYLLRDGVVIHEYKQRALHGKVALIDQEWSTVGSSNLDPLSLALNLEANLFIRDKALNQHLQGHLMELAAAHSTQMSLKGAAR | not soluble |
| NKNFWLGVRGNFTYATGKYEYVEEPYRPYPWLSHIGKRIEQSYGLVAERLFIDEEDIANSPVQTYGEYMPGDIKYKDINNDGIINDEDIVPIGFAKSPEIVYGFGVSMGYKNFDISCFFQGAARSSFFINSKATNPFMQMDLGGNNLNGMMQAYADDYWSESNRNIYATFPRLSTTDIANNNRNSTWWLRDGSYLRLKSVEIGYTLPKRLTSHLGMSNLRIYASGLNLFAWNRFKLWDVEQGNDGMQYPIQAVYNFGINLSF | not soluble |
| NLREDGEKAAREVKLLLLGAGESGKSTFLKQMRIIHGQDFDQRAREEFRPTIYSNVIKGMRVLVDAREKLHIPWGDNKNQLHGDKLMAFDTRAPMAAQGMVETRVFLQYLPAIRALWEDSGIQNAYDRRREFQLGESVKYFLDNLDKLGVPDYIPSQQDILLARRPTKGIHETHFTFKDLHFKMFDVGGQRSERKKWFECFEGVTAIIFCVALSDYDQVLMEDRQTNRMHESMKLFDSICNNKWFTDTSIILFLNKKDLFEEKIKKSPLTICYPEYAGSNTYEEAAAYIQCQFEDLNKRKDTKEIYTHFTCATDTKNVQFVFDAVTDVIIKNNLKDCGLF | soluble |
| NNDITAENNNIYKAAKDVTTSLSKVLKNIN | soluble |
| NPVSKRSRGKGMLGGAKRAARTHRASGTAVEELVFPYEHPVPQVGTLTSVELTIPLMRDGVVVEGLPTLEESRAYLAQQLVTIPWEGLALSRDEPVLATRHVGFDQ | not soluble |
| NQIYLPMVDFRPFKVGKSLRELTQAPAGAPEDVYEYVFVYEKNGKRQEFDMDHLPDDSWTYVDRHEKLIKKGYTPPVTDFLLLRGGEDVTSEIVNKKGITLLLLSPDWENASDDKMDNISEMYDYAQEHAWDFYGVSASTSDDISTWRYNTGADYPMLFLDAVTVKTITRGNPSLVILRDGVIRGKVSDANFPGVGQAQAFFDRYIGNELYQPS | not soluble |
| NQLLGMHQIEKEMTQYFGIQRCIVVAGDSDIQKKVLSDFGDVLTNTLNLLLPNGENTIAVMGGTTMAMVAENMGSLETEKRHNLFVPARGGIGEAVSVQANSISAVMANKTGGNYRALYVPEQLSRETYNSLLQEPSIQEVLTLISHANCVVHSIGRALHMAARRKMSDDEMVMLKQKNAVAESFGYFFDEEGKVVYKIPRIGLQLKNLQEIPYVVAIAGGKTKAKAIRAYMKNAPKQTWLITDEAAANEILKGVTL | not soluble |
| NRRIVARLIGLGDSIDAIIKNDLSHPIVVDGNDEIGRLSEKLIEYGEKVQEIQRTNALSLINNTTASLITSDLNGVVESANLSARKLLKLGEVNESYPIWEYFPESCREQLKKVFDGSHLWIELGKIHVTLSLGDEKPKYVRFDIRPFAHGAEYKLIMTITDVTHQEMTTRTLESRVLEKTQDLLLKNQQLENEIEERIRTEDNLKKTQDELIQAAKMAVVGQTMTSLAHELNQPLNAMSTYLYSARMFLEQESPEKVGESITHIEGLATRMSKIINSLRQFARKPEGEREVKFVSVHEVAEQASTIVNTRAKRQQIIIENQLPDDVKVQGDMLALEQVFINVLVNSCDALMESTRDEQKRIQMALVERTSQTTLIAISDNGIGFGEEIVQRIFQPFVSTKEVGLGLGMNICKSLIEKHKGSIYLASSLEKGAMVVLELPNEQ | not soluble |
| NRYQDLEKQVITTGNSIIEPLAIASESHLLAESREAVRRLISYAHRKNSKLVRSIAVFDEHHELFVTSNFHPNFEALMFPKDKPIPKLGNSEIYENSLILRVPILSEGHYLSELSNENQGTKAIGYIAVEMDLSSLRLQQYQE | not soluble |
| NTMRSFILRARSAPTDSQRLLDEIGGKCHTEILAHCMMNSLFTAQSHREDVVIHLVLESTRDYSRTITVEANEISDVGGFHEAALIALLVKALDASVGMGKEQTRVVQPGLTVRTISFEALLGELAEHHSLYMMDKKGDSIRDIKIGPNPCFILTDHIPMPKKSGNSMKRLGVEKISLGPKMLFASQCVTLIHNEIDHQEA | not soluble |
| NYAPAVAEAFYRGIPLVAVTADRPAEWIDQDEGQTIRQEGAMAGFVKSYCSLRAEFDTSASAWYANRRLNEVLNHALMPRRGPVHINMSFCEPLYGTSSGYSGKERAITFVRERQELPEEVWDMLVKRFLEAPRVMIVAGFYPPDEDVSAALQDICKFPHTVLFAESLSNIRTDTGICTADRVLAAAGEDESLYPELLISFGGSLISRMLKTFLRRAKPAEHWGIDERFPAPDTFCALTHHICTGASGFWKEFAGRLKDKAPESLSPEGISYAGSWQKIKRKADLLHRTFMADAGWSDLKAFEVILRHIPHDAALHAANSTPVRYLQLFEHAHYAGGEWSNRGTNGIEGATSTAMGFSE | not soluble |
| NYYERHIGDYARDTGYLSVLEHGIYCLLLDRYYATEQPIPANKAHRIARAHSKKEKSAVDVVLDEFFLLQ | not soluble |
